Source: patent US5686592, “High-affinity oligonucleotide ligands to immunoglobulin E (IgE)” (NeXstar Pharmaceuticals, Inc.)

T1: TAN IgE (chimeric: murine light chains and variable region, human heavy-chain constant region) (Mus musculus/Homo sapiens chimera, UniProt P01854-1 P01854-1:1-428)
T1 chain: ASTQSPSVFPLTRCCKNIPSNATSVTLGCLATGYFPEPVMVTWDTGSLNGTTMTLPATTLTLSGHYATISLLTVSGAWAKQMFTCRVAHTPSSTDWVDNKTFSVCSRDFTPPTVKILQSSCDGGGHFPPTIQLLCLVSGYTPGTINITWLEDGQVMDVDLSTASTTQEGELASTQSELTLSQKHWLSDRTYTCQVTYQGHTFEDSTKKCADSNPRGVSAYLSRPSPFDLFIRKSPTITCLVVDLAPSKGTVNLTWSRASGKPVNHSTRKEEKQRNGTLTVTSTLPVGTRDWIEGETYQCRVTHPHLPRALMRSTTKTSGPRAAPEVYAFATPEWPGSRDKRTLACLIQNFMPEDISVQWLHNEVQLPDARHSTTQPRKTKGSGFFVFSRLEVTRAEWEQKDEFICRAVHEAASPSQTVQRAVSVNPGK

B1: D17.1 (ssDNA)
DNA: CACGTTTATCCGTCCCTCCTAGTGGCGTG
B2: D17.4 (ssDNA)
DNA: GGGGCACGTTTATCCGTCCCTCCTAGTGGCGTGCCCC
B3: D17.0 (ssDNA)
DNA: CTACCTACGATCTGACTAGCCAATGAGTGTACCACGTTTATCCGTCCCTCCTAGTGGCGTGCTTACTCTCATGTAGTTCC
B4: IGEL1.2 (ssRNA)
RNA: GGGAGGACGAUGCGGGUGUGAAUGGUGUUGUGAGG
modifications: 2'-NH2 on all C and U
B5: IGEL1.1 (ssRNA)
RNA: GGGAGGACGAUGCGGGUGUGAAUGGUGUUGUGAGGUUACUGUACUUCGGUGGCUGCAGACGACUCGCCCGA
modifications: 2'-NH2 on all C and U
B6: IGEL7.1 (ssRNA)
RNA: GGGAGGACGAUGCGGAGACGCGUGAACACUAGUAUCACAGUUAAGGAUGCGCGCAGACGACUCGCCCGA
modifications: 2'-NH2 on all C and U
B7: IGEL3.1 (ssRNA)
RNA: GGGAGGACGAUGCGGUCCAUCGAUUAGGCGGUCGUGCUGGUGUAGUGUGUAGUGGCAGACGACUCGCCCGA
modifications: 2'-NH2 on all C and U
B8: IGEL44.1 (ssRNA)
RNA: GGGAGGACGAUGCGGGUGCGGGGCGAGUAUAUGAAACUUGGCUUGGUAAUGAUCAGAAGUAGUGAGAACUGGGUGCAGACGACUCGCCCGA
modifications: 2'-NH2 on all C and U
B9: IGEL13.1 (ssRNA)
RNA: GGGAGGACGAUGCGGGACGGGGGCGGAAUCAUGCAUGUGAGCGAACAGAGAGAGAGCCGUGUAUCCAUUCGUGGUCAGACGACUCGCCCGA
modifications: 2'-NH2 on all C and U
B10: IGEL29.1 (ssRNA)
RNA: GGGAGGACGAUGCGGGUGUCAAUGGUGUUGCGAGGCAAAAAUAACCAGCGCAUAUUCUCGGCCAUGUUGGCGUGCAUACAGACGACUCGCCCGA
modifications: 2'-NH2 on all C and U
B11: IGEL10.1 (ssRNA)
RNA: GGGAGGACGAUGCGGGCCACGCGUGGUUAGGGAUCGCGGACAGCACAAAUCGAAUUUGAUUCGCACCUGGACGGUCAGACGACUCGCCCGA
modifications: 2'-NH2 on all C and U
B12: IGEL49.1 (ssRNA)
RNA: GGGAGGACGAUGCGGGUGUGGGGCGGAUAAUGAGUGAACAGAGUGAAAUUCCAGUGUAGCCAGACUGUGCUGUCGCAGACGACUCGCCCGA
modifications: 2'-NH2 on all C and U
B13: IGEL5.1 (ssRNA)
RNA: GGGAGGACGAUGCGGGUAUCGGUACGUGUUGGCUUGGGAAGGGGUCCGACGGUGCAGACGACUCGCCCGA
modifications: 2'-NH2 on all C and U
B14: IGEL2.1 (ssRNA)
RNA: GGGAGGACGAUGCGGGUGUGGGGCGAAUGAGAAACGUUACCAGGAAAUGCGACUGCAGACGACUCGCCCGA
modifications: 2'-NH2 on all C and U
B15: IGEL48.1 (ssRNA)
RNA: GGGAGGACGAUGCGGGAGUGGGGCGAUGAGAGAGAUCAGAGAACUAGAAGUGAUACAAAAUCUGAGGUUGUUGCGCAGACGACUCGCCCGA
modifications: 2'-NH2 on all C and U
B16: IGEL8.1 (ssRNA)
RNA: GGGAGGACGAUGCGGACCGCCCGUCGAGGGCUAGGCGUAGAGUCUAACCGGUGCCAGACGACUCGCCCGA
modifications: 2'-NH2 on all C and U
B17: IGEL4.1 (ssRNA)
RNA: GGGAGGACGAUGCGGACGGUAGUCUGGUAGGCGCUGUGACGGCGAGAAUCCGGACCAGACGACUCGCCCGA
modifications: 2'-NH2 on all C and U
B18: IGEL11.1 (ssRNA)
RNA: GGGAGGACGAUGCGGAACAGCACGAGUGUACCUAAGACAGGCGAUGGCACUCGUGGUCGAAAUCAUAUAGUGAUGCAGACGACUCGCCCGA
modifications: 2'-NH2 on all C and U
B19: IGEL31.1 (ssRNA)
RNA: GGGAGGACGAUGCGGGUGUGAAUGGUGUUGUGAGGUUCUCGACUGUUUGUGUCUAGCCGUACUUUAGCCUCGGCCAGACGACUCGCCCGA
modifications: 2'-NH2 on all C and U
B20: IGEL2.2 (ssRNA)
RNA: GGGAGGACGAUGCGGGUGUGGGGCG
modifications: 2'-NH2 on all C and U
B21: IGEL25.1 (ssRNA)
RNA: GGGAGGACGAUGCGGGUGUGAAUGGUGUCGUGAGGACUUAUCAGGCUCCGUGGUGCAGACGACUCGCCCGA
modifications: 2'-NH2 on all C and U
B22: IGEL9.1 (ssRNA)
RNA: GGGAGGACGAUGCGGGCGGGGAACAGACGGCUCAGAGCGGCACGAUUGUCAGCCAGCAAUUAUAUCGUGUUGAUGCAGACGACUCGCCCGA
modifications: 2'-NH2 on all C and U

Target: T2, human IgE (Homo sapiens, UniProt P01854-1 P01854-1:1-428)
Assay: filter; modified PBS, 1 mM Mg2+, 37 C
Conditions: tags: Athens Research Technology; chain copies: 2; label: 5' 32P; hairpin
Description: Affinities of representative DNA ligands for human IgE were determined by nitrocellulose filter binding experiments and the K_Ds are listed in Table 7. […] Individual clones tested from this pool have affinities in the same range. The affinities were not expected to vary widely since the enriched DNA pool is very homogenous. Ligand D17.0 was picked for truncation experiments. […] However, the affinity could be restored to the level of the full-length ligand by the addition of a 4 basepair stem resulting in the 37 base truncate D17.4. It is possible that the stem in D17.1 is not stable enough to prevent the formation of an alternative secondary structure and that the additional base pair in D17.4 lock in the conformation necessary for IgE binding.

| Binder | Kd |
| --- | --- |
| B1 | 82 nM |
| B2 | 10 nM |

Same assay, conditions: tags: Athens Research Technology; chain copies: 2; label: 5' 32P; stem-loop

| Binder | Kd |
| --- | --- |
| B3 | 9 nM |

Target: T1, TAN IgE (chimeric: murine light chains …)
Assay: inhibition; inhibits IgE binding to FceRI on RBL SX-38 cells, ELISA
Conditions: tags: biotinylated in the receptor assay; gift of Dr. Kinet (NIH); chain copies: 2; label: 32P
Description: Rat basophilic leukemia (RBL) cell-line SX-38 which expresses the α, β and γ subunits of the human FcεRI IgE receptor was plated at a concentration of 10^5 cells per well in 96 well flat-bottom microtiter plates. After overnight growth, the cells were washed three times in modified PBS and incubated for one hour at 37° C. in 30 μl of 1.5 μg/ml biotinylated TAN IgE. The cells were washed 3 more times and incubated in 30 μl of 1/100 dilution of horseradish peroxidase conjugated to avidin (Molecular Probes, Eugene, Oreg.) for one hour at 37° C. After three final washes, 30 μl of 3,3',5,5'-tetramethylbenzidine (TMB) substrate (Kirkegaard and Perry Laboratories, Gaithersburg, Md.) were added as a chromogenic substrate and the plate was immediately transferred to the microtiter plate reader (Bio-Tek Instruments, Winooski, Vt.) for analysis. The absorbance at 630 nm was measured every 60 sec over a time span of 15 min. The rate of color development is an indication of the extent of IgE binding to the FcεRI receptor and was determined from the linear part of absorbance versus time graphs (data not shown). […] The inhibition activities of the RNA ligands were determined using the following formula: […]

| Binder | Ki |
| --- | --- |
| B4 | 21 nM |
| B5 | 44 nM |

Target: T2, human IgE
Assay: filter; modified PBS, 1 mM Mg2+, 37 C
Conditions: tags: Athens Research Technology; chain copies: 2; label: 32P

| Binder | Kd |
| --- | --- |
| B6 | 142 nM |
| B7 | 56 nM |
| B4 | 19 nM |
| B8 | 34 nM |
| B9 | 50 nM |
| B10 | 141 nM |
| B11 | 69 nM |
| B12 | 39 nM |
| B13 | 145 nM |
| B14 | 41 nM |
| B5 | 138 nM |
| B15 | 30 nM |
| B16 | 225 nM |
| B17 | 87 nM |
| B18 | 129 nM |
| B19 | 134 nM |
| B20 | 44 nM |
| B21 | 186 nM |
| B22 | 105 nM |

Target: T1, TAN IgE (chimeric: murine light chains …)
Assay: filter; modified PBS, 1 mM Mg2+, 37 C
Conditions: tags: biotinylated in the receptor assay; gift of Dr. Kinet (NIH); chain copies: 2; label: 32P
Description: To test the specificity of the high-affinity interaction between the RNA ligands and human IgE, binding experiments were performed with different immunoglobulins as described in Example 1.
In order to localize which part of the IgE molecule the RNA ligands are contacting, binding experiments were carried out with a hybrid IgE molecule. The light chains and the variable region of this TAN IgE are murine derived, whereas the constant portion of the heavy chains are human.

| Binder | Kd |
| --- | --- |
| B4 | 36 nM |
| B5 | 77 nM |

Target: T1, TAN IgE (chimeric: murine light chains …)
Assay: inhibition; inhibits IgE binding to FceRI on RBL SX-38 cells, ELISA
Conditions: tags: biotinylated in the receptor assay; gift of Dr. Kinet (NIH); chain copies: 2; label: 5' 32P; hairpin
Description: A cell-based enzyme linked immunosorbent assay (ELISA) was used to measure the ability of the high-affinity DNA ligands to inhibit binding of IgE to the FcεRI receptor. Rat basophilic leukemia (RBL) cell-line SX-38 which expresses the α, β and γ subunits of the human FcεRI receptor was plated at a concentration of 10^5 cells per well in 96 well flat-bottom microtiter plates. After overnight growth, the cells were washed three times in modified PBS and incubated for one hour at 37° C. in 30 µl of 1.5 µg/ml biotinylated TAN IgE. The cells were washed 3 more times and incubated in 30 µl of 1/100 dilution of horseradish peroxidase (Molecular Probes, Eugene, Oreg.) conjugated to avidin for one hour at 37° C. After three final washes, 30 µl of 3,3',5,5'-tetramethylbenzidine (TMB) substrate, (Kirkegaard and Perry Laboratories, Gaithersburg, Md.) were added as a chromogenic substrate, and the plate was immediately transferred to the microtiter plate reader (Bio-Tek instruments, Winooski, Vt.) for analysis. The absorbance at 630 nm was measured every 60 seconds over a time span of 15 minutes. The rate of color development is an indication of the extent of IgE binding to the FcεRI receptor and was determined from the linear part of absorbance versus time graphs (data not shown). […] The inhibition activities of the RNA ligands were determined using the following formula: […]

| Binder | Ki |
| --- | --- |
| B2 | ~40 nM |

Same assay, conditions: tags: biotinylated in the receptor assay; gift of Dr. Kinet (NIH); chain copies: 2; label: 5' 32P; stem-loop

| Binder | Ki |
| --- | --- |
| B3 | ~40 nM |
